Experiment: yeast display, Sf9 membrane polyspecificity reagent, FACS + sequencing; frameworks hold sequencing errors
In short: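 A nanobody's polyreactivity label depends on the gate it was sorted from. Yeast display cells were stained with 10% biotinylated, detergent-solubilized Sf9 membrane reagent for 1 hour at 4 °C, enriched on streptavidin microbeads and sorted by FACS. The low and high (top ~1%) gates were set on anti-HA fluorescence for expression and streptavidin fluorescence for reagent binding.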

Row | Sequence | polyreactivity (PSR sort gate)
1 | QVQLVESGGGLVQAGGSLRLTCAASGRIFGKYAKGRYRQAAGKEREFVATITRGGGTTSYADSVKGRFTNSRDNAMNTVYLQMNSLKPVDTAVYYCATRYFRGSYRNGDYWGQGTQVTVSS | high polyreactivity
2 | QVQLVESGGGLVQAGGSLRLTCAASGRIFIGYAMGWYRQAPGKERELVAAISRNGDNTYYADSVKGRFTISRDNAKNTVYLQMISLKPEDSAVYYCAAVAYPRQWKLSYEDGSWGYDYWGQGTQVTVSS | low polyreactivity
3 | QVQLVESGGGLVQAGGSLRLTCAASGRIFLYYTMGWYRQAPGKERELVAAITRSGGSTYYADSVKGRFTISRDNAKNTVYLQMNSLKPEDTAVYYCKRAYVRYVPMNYWGQGTQVTLSS | high polyreactivity
4 | QVQLVESGGGLVQAGGSLRLTCAASGRIFPYMGWYRQAPGKERELVAAISSRGGNTYYADSVKGRFTISRDNAKNTVYLQMNSLKPEDTAVYYCNKVKYTWYDWGQGTQVTVSS | high polyreactivity
5 | QVQLVESGGGLVQAGGSLRLTCAASGRIFTRYAMGWYRQAPGKERELVAAINYRGSSTYYADSVKGRFTISRDNAKNTVYLQMNSLKPEDTAVYYCNTYGQTDTYWRYYYWGQGTQVTVSS | high polyreactivity
6 | QVQLVESGGGLVQAGGSLRLTCAASGRIFTRYMGWYRQAPGKERELVATINWSGGSTYYADSVKGRFTISRDNEKNTFYLQMNSLKPEDTAVYYCNARNVHFYYVQYNGAKIFDYWGQGTQVTVSS | low polyreactivity
7 | QVQLVESGGGLVQAGGSLRLTCAASGRIFWGNAMGWYRQAPGKERDLVAAITSCDGTNYADSVKGRFTISRDNAKNTVYLQMNSLKPEDTAVYYCAARKYYYLQYTPRYDYWGQGTQVTVSS | low polyreactivity
8 | QVQLVESGGGLVQAGGSLRLTCAASGRIFYDKSMGWYRQSPGKERELVAAIRRSGGDTYYADSVKGRFTISRDIAKNTVYLQMNSLKTVDTAVYYCADTYSDYGRRYGYWGQGTLVTVSS | high polyreactivity
9 | QVQLVESGGGLVQAGGSLRLTCAASGRIFYGNALGWYRQAPGKERELVAAISSGGGSTYYADSVKGRFTISRDNAKNTVYLQLNSLKPEDTAVYYCAADPVHRFPGTGGFWGKGTQVTVSS | low polyreactivity
10 | QVQLVESGGGLVQAGGSLRLTCAASGRIFYLNAMGWYRQAPGKERELVAGLTNSTTGTYYADSVKGRFTISRDNAKNTVDLQMNSLKPEDTAVYYCNSDVAYEEPVETYDYWGQGTQVTVSS | low polyreactivity
11 | QVQLVESGGGLVQAGGSLRLTCAASGRNFDYNARGWYRQAPGKEREFVAPISGRGGSTYYADSVKGRFTISRDNAKNRVYLQMNSLKPEDTAVYYCAADWRYRYSGRYDYWGQGTQVTVSS | high polyreactivity
12 | QVQLVESGGGLVQAGGSLRLTCAASGRNFRAYAMGWYRQAPGKERELVAAISTSGGSTRYADSVKGRFTISRDNAKNTVYLQMNSLKPEDTAVYYCARYTTRTYEYNYWGQGTQVTVSS | high polyreactivity
13 | QVQLVESGGGLVQAGGSLRLTCAASGRTFAGNAMGWYRQAPGKERELVAAIRRTGGRTYYADSVKGRFTISRDNAKNSVYLQRNSLKPEDTAVYYCYAVNKPYTREYGYDYWGKGTQVTVSS | high polyreactivity
14 | QVQLVESGGGLVQAGGSLRLTCAASGRTFALYAMGWYRQAPGKERELVAGITGRGGTTHYADSVKGRFTISRDYAKNTVYLQMNSLKPEDTAVYYCATTQSWRVPYRRLGYWGQGTQVTVSS | low polyreactivity
15 | QVQLVESGGGLVQAGGSLRLTCAASGRTFDQYAMGWYRQAPGKERDLVAAITSGGSTYYADSVKGRFTISRDNAKNTVYLQMNSLKPEDTAVYYCYTDSSFWGYYIAQVNERDYWGQGTQVTVSS | low polyreactivity
16 | QVQLVESGGGLVQAGGSLRLTCAASGRTFGLNTMGWYRQAPGKERELVAAISRRGGSTYYADSVKGRFTISRDNAKNTVYLQMNSLKPEDTAVYYCARTSYNRYDYWGQGTQVTVSS | high polyreactivity
17 | QVQLVESGGGLVQAGGSLRLTCAASGRTFHGNAMGWYRPAPGKERELVAAISYSGGRTYYADSVKGRFTISRDNAKNTVYLQMNSLKPEDTAVYYCAAWGSSYSFDYWGQGTQVTVSS | high polyreactivity
18 | QVQLVESGGGLVQAGGSLRLTCAASGRTFKYYAMGWYRQAPGKERELVAAITRSGGNTYYADSVKGRFTISRDNAKNTVYLQMNSLKPEDTAVYYCAKRLGYRYPTYDYWGQGTQVSVSS | high polyreactivity
19 | QVQLVESGGGLVQAGGSLRLTCAASGRTFRIYAMGWYRQAPAKERELVAAIRWSGGTTYYADSVKGRFTISRDNTNNSVYLQMNSLKPEDTAVYYCNKARLGWSYRQDDYWGQGTQVTVSS | high polyreactivity
20 | QVQLVESGGGLVQAGGSLRLTCAASGRTFRYYVMGWYRQAPGKERELVASITSDATYYADSVKGRFTISRDNAKNTVYLQLNSLKPEDTAVYYCAKRYPYRHRTYNPVAYDYWGQGTQVTVSS | high polyreactivity
21 | QVQLVESGGGLVQAGGSLRLTCAASGRTFTLNSMGWYRQAPGKERELVAAIRRGGSTYYADSVKGRFTISRDNAKNTVYLQMNSLKPVDTAVYYCAAYKGSYGGYRMQYSYNYWGQGTQVTVSS | high polyreactivity
22 | QVQLVESGGGLVQAGGSLRLTCAASGRTFTVYAMGGYRQAPGKEREFVAAITERGGSTYYADSVKGRFTISRDNAKNTVYLQMNSLKPEDTAVYYCAAVYYWRPGWYVRFDYWGQGTQVTVSS | low polyreactivity

Row | Sequence | polyreactivity (PSR sort gate)
23 | QVQLVESGGGLVQAGGSLRLTCAASGRTFWYYAMGWYRQAPGKERELVAASYYSGDGTYYADSVKGRFTISRDNAKNTVYLQMTSLKPEDTALYYGAAEWSDPTLPTAWSEYEYWGQGTHVTVSS | high polyreactivity
24 | QVQLVESGGGLVQAGGSLRLTCAASGRTFYIYAMGWYRPAPGKERQLVAAITYGGGRTFYADSVKGRFTISRYNAKNTVYLQMNSLKPEDTAVYYCGATVRGKRSTYDYWGQGTQVTVSS | high polyreactivity
25 | QVQLVESGGGLVQAGGSLRLTCAASGRTFYVNAMGWYRQAPGKEREFVAAISRRGGSTYYADSVKGRFTISRDNAKNTVYLQMNCLKPEDTAVYYCNAAYSSRYDYWGQGTQVTVSS | high polyreactivity
26 | QVQLVESGGGLVQAGGSLRLTCAASGSIFDYYAMGWYRQAHGKERELVAAISDSGSTYYADSVKGRFTISRDNAKNTVYVQMNSLKAEDTAVYYCAAVLWSPYRSEPLDTYEYWGQGTQVTVSS | low polyreactivity
27 | QVQLVESGGGLVQAGGSLRLTCAASGSIFGPNTMGWYRQAPGKERELVAAIRCGGSTNYADSVKWRFTISRDNAKNTVYLQMNSLKPDDTAVYYCIATWNLFPGVLDRYVYWGQGTQVTVSS | low polyreactivity
28 | QVQLVESGGGLVQAGGSLRLTCAASGSIFHGNDMGWYRQAPGKETELVATISSGGSTYYADSVKGRFTSSRDNAKTTVYLQMNSLKPEDTAVYYCAAERFWPYKSYYWGQGTQVTVSS | low polyreactivity
29 | QVQLVESGGGLVQAGGSLRLTCAASGSIFPDNAMAWYRQAPGNERELVAAITSSGGSTYYADSVKGRLRISRDNAKNTVYLQMNSLKPADSAVYYCAKGRSYSVAKRRLYKYWGQGTEVTVSS | high polyreactivity
30 | QVQLVESGGGLVQAGGSLRLTCAASGSIFRINAMGWYRQEPGKEREFVAVITSRTGNTYYADSVKGRFTISRDNAKNTVYLQMNSLKPEDTAVYYCAADYPPARWEMEYWGQGTQVTVSS | low polyreactivity
31 | QVQLVESGGGLVQAGGSLRLTCAASGSIFRYYAMGWYRQAPGKERELVAAISSNGGSTYYADSVKGRFTISRDNAKNTVYLQMNSLKPEDTAVYYCAALFRRAPGYYWGQGTQVTVSS | high polyreactivity
32 | QVQLVESGGGLVQAGGSLRLTCAASGSIFSRYAMGWYRQAPGKERELVAAISQRAGSTYYADSVKGRFTISRDNAKNTVYLQMNSLKPEDTAVYYCAARRRGRKERGEDYWGQGTQVTVSS | high polyreactivity
33 | QVQLVESGGGLVQAGGSLRLTCAASGSIFTGYAMRCYRQAPGTERELVAAIRTRGGSPYYADSVKGRFTISRDNAKNTVYLQMNSLKPEDTALYYCAKRYYGWYGNFDYWGQGTQVTVSS | high polyreactivity
34 | QVQLVESGGGLVQAGGSLRLTCAASGSIFYRNAMGWYRQAPGKERELVAAISTDGSTNYADSVKGRFTISRDNAKNTVYLHMNSLIPEDTAVSYCAAPWTQILDYWGQGTQVTVSS | low polyreactivity
35 | QVQLVESGGGLVQAGGSLRLTCAASGSIIKRNAMGWYRQAPGKERELVASISSGGSTKYADSVKGRFTISRDNAKTTVYLQMNSLKPEDTAVYYCPKRSSQTRRAYDYWGQGTQVTVSS | low polyreactivity
36 | QVQLVESGGGLVQAGGSLRLTCAASGSILYTYAMGWYRQAPGKERELVAAISRGGGSTYYADSVKGRFTISRDNAKNTVYLQMNSLKPEDTAVYYCAARKLTRGTGRDDEYWGQGTQVTVSS | high polyreactivity
37 | QVQLVESGGGLVQAGGSLRLTCAASGSTFAWYAMGWYRQAPGKERELVAAISRTGRTYYADSVKGRFTISRDNAKNTVYLQMNSLKPEDTAVYYCAARIERFYRDQRYDYWGQGTQVTVSS | high polyreactivity
38 | QVQLVESGGGLVQAGGSLRLTCAASGSTFDLNAMGWYRQSPGKERELVARISSVGSTNYADSVKGRFTISRDNAKNSVYLQMNSLKPEDTAVYYCNAGFWDLYDYWGQGTQVTVSS | low polyreactivity
39 | QVQLVESGGGLVQAGGSLRLTCAASGSTFIRNTMGWYRQAPGKERELVAAISRSGVRTYYADSVKGRFTISRDNAKNTVYLQMNSLKPEDTAVYYCNVLRYRLWGQGTQVTVSS | high polyreactivity
40 | QVQLVESGGGLVQAGGSLRLTCAASGSTFKYYAMGWYRQAPGKERELVAAINQSGGNTFYAESVKGRFTISRDNAKNSVSLQINSLKPEDTAVYYCAADYYFYTIVSSEMDYWGQGSQVTVSS | high polyreactivity
41 | QVQLVESGGGLVQAGGSLRLTCAASGSTFLYYAMGWSREGPGNERELVATITHGGATNYADSVKGRFTISRDNAKNTVYLELNSLIPDDTAVYYCATDSYHYSYGYASLPEYDYWGHGTQVTVSS | low polyreactivity
42 | QVQLVESGGGLVQAGGSLRLTCAASGSTFNRYAMGWYRQAPGKERELVAAITSTGGTNYADSVKGRFTISLDNAKNTVYLQMNSLKPEDTAFYYCAKRWLRWRSNYWGQGTQVTVSS | high polyreactivity
43 | QVQLVESGGGLVQAGGSLRLTCAASGSTFQHYAMGWYRQAPGKEMELVAAITNTGGSTYYADSVKGRFTISRDNAKNTVYLQMNSLKPEDNAVYYCATVARRYGYPGYYWGQGTQVTVSS | low polyreactivity

From the nanobody polyreactivity screen of Harvey et al. (2022)
